Reference: US20260167721A1 (ABLEXIS, published 2026)

Tests used:
[1] = target: T1, CD3 on human donor PBMC / Pan T effector cells (human, UniProt P07766 23-207; P09693 23-182; P04234 22-171; P20963 22-164); experiment: cell-based or functional assay
[2] = target: T1, CD3 on human donor PBMC / Pan T …; experiment: cell-based or functional assay; remark: listed apart in the source

T1 sequence (P07766 23-207, chain 1 of 4): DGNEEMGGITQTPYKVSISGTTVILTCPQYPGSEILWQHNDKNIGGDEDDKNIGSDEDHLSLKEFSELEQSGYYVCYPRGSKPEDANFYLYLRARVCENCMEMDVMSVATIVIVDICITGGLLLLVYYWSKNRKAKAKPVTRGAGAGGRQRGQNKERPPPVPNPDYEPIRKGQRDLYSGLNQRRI
T1 sequence (P09693 23-182, chain 2 of 4): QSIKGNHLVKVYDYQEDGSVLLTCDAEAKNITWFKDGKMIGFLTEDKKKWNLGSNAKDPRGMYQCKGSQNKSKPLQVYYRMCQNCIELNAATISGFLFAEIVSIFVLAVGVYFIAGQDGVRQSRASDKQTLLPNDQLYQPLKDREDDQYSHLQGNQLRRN
T1 sequence (P04234 22-171, chain 3 of 4): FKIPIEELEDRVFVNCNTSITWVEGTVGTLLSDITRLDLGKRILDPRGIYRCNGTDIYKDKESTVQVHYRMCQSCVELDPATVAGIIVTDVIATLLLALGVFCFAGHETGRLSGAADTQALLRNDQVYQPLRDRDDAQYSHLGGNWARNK
T1 sequence (P20963 22-164, chain 4 of 4): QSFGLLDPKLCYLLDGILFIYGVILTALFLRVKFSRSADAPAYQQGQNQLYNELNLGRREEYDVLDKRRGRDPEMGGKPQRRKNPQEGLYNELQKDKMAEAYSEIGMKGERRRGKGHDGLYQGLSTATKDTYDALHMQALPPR

Cytokine Release Assay (TNFα) Donor 0 gMFI max [1] [gMFI] | Cytokine Release Assay (TNFα) Donor 1 gMFI max [1] [gMFI] | Cytokine Release Assay (TNFα) Donor 2 EC50 [1] [pM] | Cytokine Release Assay (TNFα) Donor 2 gMFI max [1] [gMFI] | Cytokine Release Assay (TNFα) Donor 3 gMFI max [1] [gMFI] | Cytokine Release Assay (IL2) Donor 0 EC50 [2] [pM] | Cytokine Release Assay (IL2) Donor 0 gMFI max [2] [gMFI] | Cytokine Release Assay (IL2) Donor 1 gMFI max [2] [gMFI] | Cytokine Release Assay (IL2) Donor 2 EC50 [2] [pM] | Cytokine Release Assay (IL2) Donor 2 gMFI max [2] [gMFI] | Cytokine Release Assay (IL2) Donor 3 EC50 [2] [pM] | Cytokine Release Assay (IL2) Donor 3 gMFI max [2] [gMFI] | Cytokine Release Assay (TNFα) Donor 0 EC50 [1] [pM] | Cytokine Release Assay (TNFα) Donor 3 EC50 [1] [pM] | Cytokine Release Assay (IL2) Donor 1 EC50 [2] [pM] | Binder
44100 | 5470 | 396 | 16700 | 28200 | 3030 | 65500 | 24400 | 72.5 | 30900 | 2160 | 127000 | – | – | – | CD3 × CD33-BspAb71 (bispecific antibody) chain 1: EVQLVESGGGLVKPGGSLRLSCAASGFTFSSYSMNWVRQAPGKCLEWVSSISRSSSYIYYADSVKGRFTLSRDNAKNSLYLQMNSLRGEDTAIYYCGRDGKGAIFLDYWGQGTLVTVSSGGGGSGGGGSGGGGSGGGGSSYELTQPPSVSVSPGQTARITCSGDALPKKYAYWYQQKSGQAPVLVIYEDSKRPSGIPERFSGSSSGTMATLTISGAQVEDEADYYCYSTHSSGNHRVFGCGTKLTVLDKTHTCPPCPAPEFEGGPSVFLFPPKPKDTLMISRTPEVTCVVVDVSHEDPEVKFNWYVDGVEVHNAKTKPREEQYNSTYRVVSVLTVLHQDWLNGKEYKCKVSNKALPASIEKTISKAKGQPREPQVYTLPPCREEMTKNQVSLWCLVKGFYPSDIAVEWESNGQPENNYKTTPPVLDSDGSFFLYSKLTVDKSRWQQGNVFSCSVMHEALHNHYTQKSLSLSPGK chain 2: EVQLVQSGAEVKKPGSSVKVSCKASGYTITDSNIHWVRQAPGQSLEWIGYIYPYNGGTDYNQKFKNRATLTVDNPTNTAYMELSSLRSEDTAFYYCVNGNPWLAYWGQGTLVTVSSASTKGPSVFPLAPSSKSTSGGTAALGCLVKDYFPEPVTVSWNSGALTSGVHTFPAVLQSSGLYSLSSVVTVPSSSLGTQTYICNVNHKPSNTKVDKRVEPKSCDKTHTCPPCPAPEFEGGPSVFLFPPKPKDTLMISRTPEVTCVVVDVSHEDPEVKFNWYVDGVEVHNAKTKPREEQYNSTYRVVSVLTVLHQDWLNGKEYKCKVSNKALPASIEKTISKAKGQPREPQVCTLPPSREEMTKNQVSLSCAVKGFYPSDIAVEWESNGQPENNYKTTPPVLDSDGSFFLVSKLTVDKSRWQQGNVFSCSVMHEALHNRFTQKSLSLSPGK chain 3: DIQLTQSPSTLSASVGDRVTITCRASESLDNYGIRFLTWFQQKPGKAPKLLMYAASNQGSGVPSRFSGSGSGTEFTLTISSLQPDDFATYYCQQTKEVPWSFGQGTKVEVKRTVAAPSVFIFPPSDEQLKSGTASVVCLLNNFYPREAKVQWKVDNALQSGNSQESVTEQDSKDSTYSLSSTLTLSKADYEKHKVYACEVTHQGLSSPVTKSFNRGEC
48300 | 5610 | 83.2 | 15800 | 31600 | 180 | 69200 | 26800 | 141 | 34800 | 181 | 104000 | 164 | 222 | 437 | CD3 × CD33-BspAb37 (bispecific antibody) chain 1: not shown chain 2: EVQLVQSGAEVKKPGSSVKVSCKASGYTITDSNIHWVRQAPGQSLEWIGYIYPYNGGTDYNQKFKNRATLTVDNPTNTAYMELSSLRSEDTAFYYCVNGNPWLAYWGQGTLVTVSSASTKGPSVFPLAPSSKSTSGGTAALGCLVKDYFPEPVTVSWNSGALTSGVHTFPAVLQSSGLYSLSSVVTVPSSSLGTQTYICNVNHKPSNTKVDKRVEPKSCDKTHTCPPCPAPEFEGGPSVFLFPPKPKDTLMISRTPEVTCVVVDVSHEDPEVKFNWYVDGVEVHNAKTKPREEQYNSTYRVVSVLTVLHQDWLNGKEYKCKVSNKALPASIEKTISKAKGQPREPQVCTLPPSREEMTKNQVSLSCAVKGFYPSDIAVEWESNGQPENNYKTTPPVLDSDGSFFLVSKLTVDKSRWQQGNVFSCSVMHEALHNRFTQKSLSLSPGK chain 3: DIQLTQSPSTLSASVGDRVTITCRASESLDNYGIRFLTWFQQKPGKAPKLLMYAASNQGSGVPSRFSGSGSGTEFTLTISSLQPDDFATYYCQQTKEVPWSFGQGTKVEVKRTVAAPSVFIFPPSDEQLKSGTASVVCLLNNFYPREAKVQWKVDNALQSGNSQESVTEQDSKDSTYSLSSTLTLSKADYEKHKVYACEVTHQGLSSPVTKSFNRGEC
18000 | 4930 | 155 | 9080 | 13600 | 450 | 23200 | 19000 | 90.9 | 16800 | 198 | 27200 | 610 | 685 | 384 | CD3 × CD33-BspAb116 (bispecific antibody) chain 1: NFMLTQPHSVSESPGKTVTISCTRSSGSIASNYVQWYQQRPGSSPTTVIYEDNQRPSGVPDRFSGSIDSSSNSASLTISGLKTEDEAYYYCQSFDSSNRVFGCGTKLTVLGGGGSGGGGSGGGGSGGGGSQVQLQESGPGLVKPSQTLSLTCTVSGGSISSGGYYWSWIRQHPGKCLEWIGYIYYSGSTYYNPSLKSRVTISVDTSKDQFSLKLSSVTAADTAVYYCARERKTSLPFDIWGQGTMVTVSSDKTHTCPPCPAPEFEGGPSVFLFPPKPKDTLMISRTPEVTCVVVDVSHEDPEVKFNWYVDGVEVHNAKTKPREEQYNSTYRVVSVLTVLHQDWLNGKEYKCKVSNKALPASIEKTISKAKGQPREPQVYTLPPCREEMTKNQVSLWCLVKGFYPSDIAVEWESNGQPENNYKTTPPVLDSDGSFFLYSKLTVDKSRWQQGNVFSCSVMHEALHNHYTQKSLSLSPGK chain 2: EVQLVQSGAEVKKPGSSVKVSCKASGYTITDSNIHWVRQAPGQSLEWIGYIYPYNGGTDYNQKFKNRATLTVDNPTNTAYMELSSLRSEDTAFYYCVNGNPWLAYWGQGTLVTVSSASTKGPSVFPLAPSSKSTSGGTAALGCLVKDYFPEPVTVSWNSGALTSGVHTFPAVLQSSGLYSLSSVVTVPSSSLGTQTYICNVNHKPSNTKVDKRVEPKSCDKTHTCPPCPAPEFEGGPSVFLFPPKPKDTLMISRTPEVTCVVVDVSHEDPEVKFNWYVDGVEVHNAKTKPREEQYNSTYRVVSVLTVLHQDWLNGKEYKCKVSNKALPASIEKTISKAKGQPREPQVCTLPPSREEMTKNQVSLSCAVKGFYPSDIAVEWESNGQPENNYKTTPPVLDSDGSFFLVSKLTVDKSRWQQGNVFSCSVMHEALHNRFTQKSLSLSPGK chain 3: DIQLTQSPSTLSASVGDRVTITCRASESLDNYGIRFLTWFQQKPGKAPKLLMYAASNQGSGVPSRFSGSGSGTEFTLTISSLQPDDFATYYCQQTKEVPWSFGQGTKVEVKRTVAAPSVFIFPPSDEQLKSGTASVVCLLNNFYPREAKVQWKVDNALQSGNSQESVTEQDSKDSTYSLSSTLTLSKADYEKHKVYACEVTHQGLSSPVTKSFNRGEC
28500 | 4840 | 4030 | 10100 | 17900 | 6630 | 39300 | 16200 | 1730 | 19200 | 1840 | 45900 | 6010 | 5950 | 2870 | CD3 × CD33-BspAb38 (bispecific antibody) chain 1: not shown chain 2: EVQLVQSGAEVKKPGSSVKVSCKASGYTITDSNIHWVRQAPGQSLEWIGYIYPYNGGTDYNQKFKNRATLTVDNPTNTAYMELSSLRSEDTAFYYCVNGNPWLAYWGQGTLVTVSSASTKGPSVFPLAPSSKSTSGGTAALGCLVKDYFPEPVTVSWNSGALTSGVHTFPAVLQSSGLYSLSSVVTVPSSSLGTQTYICNVNHKPSNTKVDKRVEPKSCDKTHTCPPCPAPEFEGGPSVFLFPPKPKDTLMISRTPEVTCVVVDVSHEDPEVKFNWYVDGVEVHNAKTKPREEQYNSTYRVVSVLTVLHQDWLNGKEYKCKVSNKALPASIEKTISKAKGQPREPQVCTLPPSREEMTKNQVSLSCAVKGFYPSDIAVEWESNGQPENNYKTTPPVLDSDGSFFLVSKLTVDKSRWQQGNVFSCSVMHEALHNRFTQKSLSLSPGK chain 3: DIQLTQSPSTLSASVGDRVTITCRASESLDNYGIRFLTWFQQKPGKAPKLLMYAASNQGSGVPSRFSGSGSGTEFTLTISSLQPDDFATYYCQQTKEVPWSFGQGTKVEVKRTVAAPSVFIFPPSDEQLKSGTASVVCLLNNFYPREAKVQWKVDNALQSGNSQESVTEQDSKDSTYSLSSTLTLSKADYEKHKVYACEVTHQGLSSPVTKSFNRGEC
